According to article PMC10351740, “ZCCHC3 is a stress granule zinc knuckle protein that strongly suppresses LINE-1 retrotransposition” (PLOS Genetics, 2023):

Columns and labels:
[1] = biological target: T1, ZCCHC3-FL-7AA (zinc knuckle mutant of ZCCHC3-FL) (human, UniProt Q9NUD5 1-403, C353,366,372,375A | C353,366,372,375A | C353,366,372,375A | C353,366,372,375A | …); experiment: co-IP; HEK 293T lysates, FLAG-tagged bait on α-FLAG-M2 antibody bound to Protein G Dynabeads, 3 h at 4°C, 5 washes; endogenous ORF1p detected with polyclonal α-L1Hs-ORF1p; bands quantified with ImageJ (IP/input compared with empty vector); conditions: partners not purified
T1 construct: also called zinc-finger mutant ZCCHC3-FL-7AA; source: HEK 293T, transfected, in lysate; not shown: FLAG, C-terminal, kept
T1 sequence (looked up): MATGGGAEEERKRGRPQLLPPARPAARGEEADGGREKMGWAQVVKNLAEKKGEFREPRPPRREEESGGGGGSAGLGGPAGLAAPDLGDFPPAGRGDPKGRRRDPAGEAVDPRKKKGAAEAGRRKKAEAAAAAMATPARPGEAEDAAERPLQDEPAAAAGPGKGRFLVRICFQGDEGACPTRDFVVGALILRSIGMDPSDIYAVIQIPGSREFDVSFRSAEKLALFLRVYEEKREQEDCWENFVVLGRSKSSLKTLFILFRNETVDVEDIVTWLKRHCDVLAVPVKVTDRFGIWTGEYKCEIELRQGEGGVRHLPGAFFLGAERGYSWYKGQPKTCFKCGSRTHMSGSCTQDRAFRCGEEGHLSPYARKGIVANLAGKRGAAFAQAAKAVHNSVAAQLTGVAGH

[2] = biological target: T2, ZCCHC3-FL (Zinc Finger CCHC-Type Containing 3 with C-terminal FLAG epitope tag) (human, UniProt Q9NUD5 1-403); experiment: as above; conditions: partners not purified
T2 construct: ZCCHC3 (Zinc Finger CCHC-Type Containing 3), human; made by PCR amplification of V5-TEV-ZCCHC3 (Ultimate ORF clone IOH40787); legend calls it the 44 kD full-length ZCCHC3-FL; also called FLAG-tagged ZCCHC3; wild-type ZCCHC3-FL; source: HEK 293T, transfected, in lysate; not shown: FLAG, C-terminal, kept
T2 sequence (looked up): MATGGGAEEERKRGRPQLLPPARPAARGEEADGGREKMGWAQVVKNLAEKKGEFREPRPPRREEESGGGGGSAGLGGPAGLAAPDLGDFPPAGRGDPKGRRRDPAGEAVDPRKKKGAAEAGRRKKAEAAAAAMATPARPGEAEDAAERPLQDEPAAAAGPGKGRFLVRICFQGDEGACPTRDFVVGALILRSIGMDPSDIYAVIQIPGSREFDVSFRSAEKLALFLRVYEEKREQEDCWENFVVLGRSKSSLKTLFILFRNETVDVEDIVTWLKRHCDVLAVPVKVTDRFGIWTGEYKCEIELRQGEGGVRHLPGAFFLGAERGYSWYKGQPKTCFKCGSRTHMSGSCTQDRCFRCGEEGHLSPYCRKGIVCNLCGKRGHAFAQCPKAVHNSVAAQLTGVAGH

B1: endogenous L1 ORF1p (natural protein, human (endogenous in HEK 293T), UniProt Q9UN81 1-338, looked up)
chain: MGKKQNRKTGNSKTQSASPPPKERSSSPATEQSWMENDFDELREEGFRRSNYSELREDIQTKGKEVENFEKNLEECITRITNTEKCLKELMELKTKARELREECRSLRSRCDQLEERVSAMEDEMNEMKREGKFREKRIKRNEQSLQEIWDYVKRPNLRLIGVPESDVENGTKLENTLQDIIQENFPNLARQANVQIQEIQRTPQRYSSRRATPRHIIVRFTKVEMKEKMLRAAREKGRVTLKGKPIRLTADLSAETLQARREWGPIFNILKEKNFQPRISYPAKLSFISEGEIKYFIDKQMLRDFVTTRPALKELLKEALNMERNNRYQPLQNHAKM
notes: LINE-1 ORF1 protein, endogenous in HEK 293T cells; Endogenous ORF1p comes from many L1 loci; also called endogenous ORF1p; source: endogenous, HEK 293T lysate
In the case of B1, the “fold reduction against wild-type ZCCHC3-FL (band intensity)” value [1] is reported as 2 fold and the “fold increase over empty vector controls (IP/input band intensity)” value [2] is reported as 5 fold.
